Consider three molecules from patent US20250346673A1 (DUALITY BIOLOGICS SUZHOU, published 2025).

The target in assay [1] is T1, human BDCA2 (human, UniProt Q8WTT0 1-213).
T1 construct: whole, on cells; also called hBDCA2; Blood dendritic cell antigen 2
T1 sequence (looked up): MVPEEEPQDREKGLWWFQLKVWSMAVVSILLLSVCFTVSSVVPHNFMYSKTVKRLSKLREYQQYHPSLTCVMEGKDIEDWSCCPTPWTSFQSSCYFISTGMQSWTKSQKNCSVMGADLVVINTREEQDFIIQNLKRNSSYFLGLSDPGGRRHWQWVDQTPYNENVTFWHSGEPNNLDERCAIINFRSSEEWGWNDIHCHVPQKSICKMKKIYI
Description: FACS on CHOK1-hBDCA2 cells; EC50 table under the plot, unit from the x axis (nM). As to the method:
(§1) The cells were recovered and resuspended to 2×10⁶/mL with FACS buffer (PBS+2% FBS). The cells were added to 3799 cell plates (Corning) at 100 μL/well, and the supernatant was discarded after centrifugation at 300 g. The antibodies were serially diluted with FACS buffer (Id.), the diluted antibodies were added to centrifuged cells and the cells were resuspended. The cells were incubated at 4° C. for 1 h. The incubated cells were centrifuged at 300 g for 5 min and washed twice with FACS buffer. 100 μL […] anti-Human IgG (H+L) Cross-Adsorbed Secondary Antibody-Alexa Fluor 488 (Sigma, A11013; 1:1000) secondary antibody was added, washed twice with FACS buffer after incubation at 4° C. for 1 h, resuspended with PBS, analyzed with FACS (BD FACS CantoTM II) instrument and curve fitted with GraphPad Prism6, and EC₅₀ values were calculated.

The target of assay [2] is T1, human BDCA2. Kind of assay: FACS on CHOK1-hBDCA2 cells; EC50 table under the plot, unit from the x axis (nM) [continued) c.]. The procedure:
(§2) The cells were recovered and resuspended to 2×10⁶/mL with FACS buffer (PBS+2% FBS). The cells were added to 3799 cell plates (Corning) at 100 μL/well, and the supernatant was discarded after centrifugation at 300 g. The antibodies were serially diluted with FACS buffer (Id.), the diluted antibodies were added to centrifuged cells and the cells were resuspended. The cells were incubated at 4° C. for 1 h. The incubated cells were then centrifuged at […] for 5 min and washed twice with FACS buffer. 100 μL Donkey anti-Mouse IgG (H+L) Highly Cross-Adsorbed Secondary Antibody-Alexa Fluor 488 (Invitrogen, A21202; 1:1000) secondary antibody was added to the cells, which were washed twice with FACS buffer after incubation at 4° C. for 1 h, resuspended with PBS, analyzed with FACS (BD FACS CantoTM II) instrument. The curve was fitted with GraphPad Prism6, and EC₅₀ values were calculated.

The target in assay [3] is T2, cynomolgus BDCA2 (cynomolgus monkey, UniProt A0A2K5UWP4 1-212).
T2 construct: whole, on cells; also called Cyno BDCA2; cynoBDCA2
T2 sequence: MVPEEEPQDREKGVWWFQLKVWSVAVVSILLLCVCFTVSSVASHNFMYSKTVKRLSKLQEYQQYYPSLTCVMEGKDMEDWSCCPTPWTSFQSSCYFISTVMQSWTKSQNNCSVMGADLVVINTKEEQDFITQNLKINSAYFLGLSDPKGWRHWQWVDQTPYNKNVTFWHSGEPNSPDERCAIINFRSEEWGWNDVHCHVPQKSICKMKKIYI
Description: FACS on 293F-cynoBDCA2 cells; EC50 table under the plot, unit from the x axis (nM) [continued) c.]. As to the method: as §2

The target of assay [4] is T1, human BDCA2. Description: FACS on CHOK1-hBDCA2 cells; EC50 table under the plot, unit from the x axis (nM). The procedure: as §1
This is another data set of the same source.

The target of assay [5] is T1, human BDCA2. Description: FACS on CHOK1-hBDCA2 cells; EC50 table under the plot, unit from the x axis (nM) [continued) d.]. Put shortly:
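Cells at 2×10⁶/mL in PBS+2% FBS were pelleted, resuspended in serially diluted antibodies and held 1 h at 4° C. After two washes, Alexa Fluor 488 donkey anti-mouse IgG (1:1000) was added for 1 h at 4° C. Flow cytometry read binding; EC₅₀ came from fitted curves.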

Assay [6] concerns the target T1, human BDCA2. Kind of assay: FACS, CHOK1-humanBDCA2 cells.
Assay [7] addresses T1, human BDCA2. Kind of assay: FACS on CHOK1-hBDCA2 cells; EC50 table under the plot, unit from the x axis (nM). As to the method: as §2
The source holds these as a separate data set.

The target in assay [8] is T1, human BDCA2. Description: FACS on CHOK1-hBDCA2 cells; EC50 table under the plot, unit from the x axis (nM) [continued) e.]. The procedure:
as §2

For assay [9], the target named is T1, human BDCA2. Kind of assay: FACS on CHOK1-hBDCA2 cells; EC50 table beside the plot, unit from the x axis (nM) [continued) c.]. The procedure: as §1
Assay [10] concerns the target T1, human BDCA2. Description: cell-based or functional assay.
For assay [11], the target named is T3, Recombinant Human BDCA2 (human, UniProt Q8WTT0 45-213, limits assumed).
T3 construct: also called hBDCA2 (SPR analyte); human BDCA2 antigen
T3 sequence (looked up): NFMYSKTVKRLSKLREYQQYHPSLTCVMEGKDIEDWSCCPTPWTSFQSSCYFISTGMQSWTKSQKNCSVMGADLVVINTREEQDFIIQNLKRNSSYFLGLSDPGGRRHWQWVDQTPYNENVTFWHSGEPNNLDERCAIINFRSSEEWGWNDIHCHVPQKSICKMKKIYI
Kind of assay: SPR (BIAcore), antibody captured by anti-human IgG (Fc), hBDCA2 as analyte, 1:1 model.

For assay [12], the target named is T1, human BDCA2. Description: FACS, CHOK1-humanBDCA2 cells. As to the method: The cells were recovered and resuspended to 2×10⁶/mL with FACS buffer (PBS+2% FBS). The resuspended cells were added to 3799 cell plates at 100 μL/well, and the supernatant was discarded after centrifugation at 300 g. […] The cells were incubated at 4° C. for 1 h. The incubated cells were centrifuged at […] for 5 min and washed twice with FACS buffer. 100 μL Goat anti-Human IgG (H+L) Cross-Adsorbed Secondary Antibody, Alexa Fluor 488 (Sigma, A11013; 1:1000) secondary antibody was added, washed twice with FACS buffer after incubation at 4° C. for 1 h. The cells were resuspended with PBS, then the fluorescence signal of antibodies bound to cell surface was analyzed with FACS (BD FACS CantoTM II) instrument and curves were fitted with GraphPad Prism6 to calculate EC₅₀ values for antibodies binding to BDCA2 antigen.
The source holds these as a separate data set.

Assay [13] has as its target T1, human BDCA2. Description: FACS on CHOK1-hBDCA2 cells; EC50 table under the plot, unit from the x axis (nM). The source holds these as a separate data set.

B1: mab001c (antibody, V domains shown)
VH: QIQLVQSGPELKKPGETVKISCKASGYTFTDFSMHWVKQAPGKGLKWMGWINTETGEPTYADDFKGRFAFSLETSASTAFLQINNLKNDDTTTYFCSRGGDGHPYWYFAVWGAGTTVTVSS
VL: DIVLTQSPASLAVSLGQRATISCRASQSVSTSSYSYMHWYQQKPGQPPKLLIKYASILESGVPARFSGSGSGTDFTLNIHPVEEEDTATYYCQHSWEIPFTFGSGTKLEIK
On to B1, for which a half-maximal response in assay [1] (EC50) required 1.9 nM.

B2: mAb016 (antibody, V domains shown)
VH: QVQLKQSGPGLVQPSQSLSITCTVSGFSLTSYGVHWVRQSPGKGLEWLGVIWSGESTDYDAAFISRLSISKDNSKSQVFFRMNSLQADDSAIYYCARRRSHYYGYVMDYWGQGTSVTVSS
VL: DIVLTQSPASLAVSLGQRATISCKASQSVDYDGVGYLNWYQHKPGQPPKLLIYAASNLESGIPARFSGSGSGTDFTLNIHPVEEEDAATYYCQQSNEDPPTFGSGTKLEIK
notes: Mouse hybridoma antibody
For the molecule B2, the figures for the EC50 in [2] and in [3] were 1.33 nM and 1.78 nM, respectively.

B3: BIIB059 (antibody, V domains shown)
VH: DVQLVESGGGLVKPGGSLRLSCAASGFTFSTYTMSWVRQAPGKGLEWVATISPGDSFGYYYPDSVQGRFTISRDNAKNSLYLQMNSLRAEDTAVYYCTRDIYYNYGAWFAYWGQGTLVTVSS
VL: DIQLTQSPSSLSASVGDRVTITCKASQSVDYDGDSYMNWYQQKPGKAPKLLIYAASTLESGVPSRFSGSGSGTDFTLTISSLQPEDFATYYCQQANEDPRTFGQGTKVEIKR
Take B3: the EC50 in assay [4] amounted to 1.91 nM; in assay [5] it was 1.09 nM; in assay [6], 1.3 nM; in assay [2], 2.48 nM; in assay [7], 2.17 nM; in assay [1], 3.45 nM. Moreover, the EC50 turned out to be 1.91 nM in assay [8], 2 nM in assay [9], 3.1 nM in assay [12] and 2.17 nM in assay [13]. In addition, the “EC50 (nM), inhibition of CpG-A stimulated IFNα release from human PBMC” value in assay [10] amounted to 0.04 nM. In addition, the Kd in assay [11] stood at 1.07 nM.
